The text below walks through data of publication PMC2910870.

What all share (assay): SPR
A general note: In SPR one partner is held on a chip, and binding of the other changes the refractive index at the surface.

In assay [1] the target is NL3A1 (rat neuroligin 3 cholinesterase-like region, with insert A1, without insert A2) (rat).
The target of assay [2] is NL1A (rat neuroligin 1 cholinesterase-like region, with insert A, without insert B) (rat).
Assay [3] concerns the target NL3Δ (rat neuroligin 3 cholinesterase-like region, without inserts A1 and A2) (rat).
Assay [4] deals with NL1B (rat neuroligin 1 cholinesterase-like region, with insert B, without insert A) (rat).
For assay [5], the target named is NL2Δ (rat neuroligin 2 cholinesterase-like region, without insert A) (rat).
The target in assay [6] is NL3A2 (rat neuroligin 3 cholinesterase-like region, with insert A2, without insert A1) (rat).
Assay [7] has as its target NL1Δ (rat neuroligin 1 cholinesterase-like region, without inserts A and B) (rat).
For assay [8], the target named is NL1AB (rat neuroligin 1 cholinesterase-like region, with inserts A and B) (rat) (UniProt Q62765).
The target of assay [9] is NL3A1A2 (rat neuroligin 3 cholinesterase-like region, with inserts A1 and A2) (rat) (UniProt Q62889).
Assay [10] concerns the target NL2A (rat neuroligin 2 cholinesterase-like region, with insert A) (rat) (UniProt Q62888).

β-NRX2+4 (rat β-neurexin 2 LNS domain, with splice insert 4), sequence (Q63376 87-290): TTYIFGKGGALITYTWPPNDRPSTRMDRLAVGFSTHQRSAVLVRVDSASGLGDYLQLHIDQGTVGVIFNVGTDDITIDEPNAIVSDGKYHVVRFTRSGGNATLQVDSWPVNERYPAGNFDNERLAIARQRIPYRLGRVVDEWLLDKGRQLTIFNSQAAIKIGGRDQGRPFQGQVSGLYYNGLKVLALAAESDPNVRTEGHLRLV
β-NRX1+4 (mouse β-neurexin 1 LNS domain, with splice insert 4), sequence (P0DI97 86-288): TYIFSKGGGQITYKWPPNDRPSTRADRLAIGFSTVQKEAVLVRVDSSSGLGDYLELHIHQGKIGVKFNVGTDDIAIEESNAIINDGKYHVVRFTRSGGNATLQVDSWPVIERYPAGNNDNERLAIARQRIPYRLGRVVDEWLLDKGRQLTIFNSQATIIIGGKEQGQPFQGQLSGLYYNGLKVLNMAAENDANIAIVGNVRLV

Take “β-NRX1+4 (mouse β-neurexin 1 LNS domain, with splice insert 4) (from UniProt P0DI97 86-288) (domain or fragment)”: the dissociation constant Kd is 12 µM in assay [1]; 2.1 µM in assay [2]; 23.8 µM in [3]; 2.75 µM in assay [4]; 3.52 µM in assay [5]; 21.9 µM in assay [6]. The substance also registered a Kd in assay [7] of 1.54 µM.

With “β-NRX1Δ4 (mouse β-neurexin 1 LNS domain, lacking splice insert 4) (domain or fragment)”, the dissociation constant (Kd) in [1] was 7.45 µM; in assay [8], 1.21 µM; in assay [2], 0.845 µM; in assay [3], 8.17 µM; in assay [4], 1.16 µM; in [9], 6.57 µM. In addition, the Kd in assay [5] turned out to be 0.964 µM; in [6] it was 7.15 µM; in assay [7], 0.828 µM.

With “β-NRX2+4 (rat β-neurexin 2 LNS domain, with splice insert 4) (from UniProt Q63376 87-290) (domain or fragment)”, the Kd is 20.5 µM in assay [1]; 3.32 µM in [2]; 56.8 µM in assay [3]; 5.48 µM in assay [4]; 3.39 µM in [5]; 42.2 µM in [6]. Moreover, the Kd in [7] turned out to be 3.77 µM.

Consider “β-NRX2Δ4 (rat β-neurexin 2 LNS domain, lacking splice insert 4) (domain or fragment)”, for which the Kd in assay [1] was determined as 9.05 µM; in assay [8], 2.29 µM; in [2], 1.47 µM; in assay [3] it was 16.5 µM; in [4], 2.21 µM; in [9], 15.3 µM. For the same substance, the figures for the dissociation constant Kd in assay [5] and in assay [7] were 0.706 µM and 0.917 µM, respectively.

“β-NRX3+4 (mouse β-neurexin 3 LNS domain, with splice insert 4) (domain or fragment)”: the Kd stood at 4.32 µM in [1]; 0.393 µM in assay [8]; 0.246 µM in [2]; 9.73 µM in [3]; 0.365 µM in [4]; 9.39 µM in [9]. Besides, the dissociation constant Kd in assay [5] was 0.262 µM; in [10], 0.239 µM; in assay [7] it was 0.332 µM.

With “β-NRX3Δ4 (mouse β-neurexin 3 LNS domain, lacking splice insert 4) (domain or fragment)”, the Kd in assay [1] amounted to 6.26 µM; in [2] it was 0.782 µM; in [3], 10.1 µM; in assay [9], 10.9 µM; in [5], 0.418 µM; in assay [6], 11.2 µM. Also, the Kd in [10] stood at 0.369 µM; in [7], 1.02 µM.

One may read the Kd as the equilibrium constant for the complex coming apart. Low values mean higher affinity, high ones lower affinity.
